Data as given in patent US20210347873A1 (SHANGHAI PHARMAEXPLORER, published 2021).

B1: 2-1G11 (antibody, human IgG1, V domains shown)
VH: EVQLVESRGGVVQPGRSLRLSCAASGFTFSSYGMHWVRQAPGKGLEWVAVISYDGSNKYYADSVKGRFTISRDNSKNTLYLQMNSLRAEDAAVYYCARDRVDILTGYSIYGMDVWGQGTTVTVSS
VL: EIVMTQSPATLSLSPGERATLSCRASQSVSSYLAWYQQKPGQAPRLLIYDASKRATGIPARFSGSGSGTDFTLTISSLEPEDFAVYYCQQRSNWPLTFGGGTKVEIK
B2: 20D1B6E9E5 (antibody, V domains shown)
VH: EVQLQQSVAELVRPGASVKLSCTASDFNIKNTYIHWVKQRPEQGLEWIGRIDPVNGNTKYAPKFQDKATIIVDTYSNTAYLQLSSLASEDTAVYYCARWPITTIVATDWYFDVWGTGTTVTVSS
VL: DVLMTQTQLALPVRLGEQASISCRSSQSIVNSNGNTYLEWYLQKPGQSPKLLIYKVSNRFSGVPDRFSGSGSGTDFTLKISRVEAEDLGVYYCFQGSHVPWTFGGGTKLEIK
notes: Mouse hybridoma antibody purified on Protein G
B3: 78C11D2D12 (antibody, V domains shown)
VH: QVQLQQSGAELVRPGTSVKISCKASGYAFTNYWLGWVKQRPGHGLEWIGDIYPGSGNTYYNEKFKGKATLTADKSSSTAYMQLSSLTSEDSAVFFCAAYLYAMDYWGQGTSVTVSS
VL: QIVLTQSPAIMSASPGEKVTITCSASSSVSYMHWFQQKPGTSPKLWIYSASNLASGVPARFSGSGSGTSYSLTISRMEAEDAATYYCQQRGSYPFTFGSGTKLEIK
notes: as for B2
B4: 89A2G5E7 (antibody, V domains shown)
VH: QVQLKESGPGLVAPSQSLSITCTVSGLSLNSHDISWIRQPPGKGLEWLGVIWSGGGTKYNSAFMSRLSISKDNSKSQVFLKMNSLHTDDTAIYYCVRTPSMITYSAMDYWGQGTSVTVSS
VL: EIVLTQSPALMAASPGEKVTITCSVSSSISSRNLHWYQQKSQTSPKAWIHATSNLASGVPVRFSGSGSGTSYSLTISSMEAEDAATYYCQQWSSYPLTFGSGTKLEIK
notes: as for B2
B5: 97E7B3F2 (antibody, V domains shown)
VH: EVQLQQSGPELVKSGASVKISCKASGYTFTDHKMHWVKQSHGKSLEWIGYISPYNGGTGYNQKFKSKVTLTVDISSSTAYMELRSLTSEDSAVYYCARWGFYDVMDSWGQGTSVTVSS
VL: DVLLTQTPLSLPVSLGDQASISCRSSQTIVHIIGDTYLEWYLQKPGQSPKLLIYKVSNRFSGVPDRFSGSGAGTDFTLKISRVEAEDLGVYYCFQGSHVPRTFGGGTKLEIK
notes: as for B2
B6: 93C6F10D3 (antibody, V domains shown)
VH: EVQLVESGGGLVTPGGSLKLSCVASGFAFSTYGMSWVRQTPERRLEWVAYISGGGGSIYYPDSVKGRFTISRDNAKNILYLQMSSLKSEDTAMYHCTRHPDLLLRYDYALDHWGQGTSVTVSS
VL: DIQMTQSPASLSASVGETVTITCRASENIHIYLAWYQQKQGKSPQLLVYNGKTLADGVPSRFSGSGSGTQYSLKINTLQPEDFGNYYCQHFWNSTWTFGGGTKLEIK
notes: as for B2
B7: 35E6F7C3 (antibody, V domains shown)
VH: EVQLQQSGAELVKPGASVKLSCTAAGFNIQDTYIHWVKQRPEQGLEWIGRIDPANANTVYDPKFQGKATITADTSSNTAYLQVSSLTSEDTAVYYCASPVITAGFAYWGQGTLVTVSA
VL: QIVLTQSPAIMSASPGEKVTMTCGASSSVNYVHWYQQKSGTSPKRWIYDTSKLASGVPARFSGSGSGTSYSLTISSMEAEDAATYYCQQWTRSPLTFGAGTKVELK
notes: as for B2

Experiments:
[1] = target: T1, human APRIL protein (human, UniProt O75888 105-250, limits assumed); experiment: ELISA, coated APRIL; antibody 13.3 nM
T1 construct: Bought protein; also called recombinant APRIL protein
T1 sequence (looked up): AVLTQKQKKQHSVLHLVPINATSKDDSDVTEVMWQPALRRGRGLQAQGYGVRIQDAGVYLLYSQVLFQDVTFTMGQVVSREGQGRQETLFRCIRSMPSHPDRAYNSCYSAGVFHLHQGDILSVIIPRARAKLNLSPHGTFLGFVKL
Protocol: (§1) To test whether the BLyS antibody cross-reacted with human APRIL protein, APRIL protein (purchased from R & D Systems) was first diluted to a final concentration of 1.0 μg/mL with PBS, and then 50 μL of which per well was aliquoted into a 96-well ELISA plate, and the plate was subsequently sealed with plastic film and incubated at 4° C. overnight. On the next day the plate was rinsed four times with the plate washing buffer [PBS buffer containing 0.0500 (v/v) Tween20] and a blocking solution [PBS buffer containing 0.05 (v/v) Tween20 and 1 (w/w) BSA] was added, then the protein was blocked at 37° C. for 2 hours. The blocking solution was removed and 100 μL per well of the lead antibodies prepared in Embodiment 1 and 2 were added in. After incubation for 1 hour at 37° C., the plate was rinsed four times with the plate washing buffer [PBS buffer containing 0.05 (v/v) Tween20]. HRP-labeled (horseradish peroxidase) secondary antibody (purchased from Sigma) was added in and incubated at 37° C. for 1 hour. The plate was then rinsed four times with the plate washing buffer [PBS buffer containing 0.050 (v/v) Tween20]. 100 μL of TMB substrate was aliquoted into each well and after incubation at room temperature for 5 minutes, 100 μL of stop solution (1.0 N HCl) was aliquoted into each well. A₄₅₀ₙₘ values were read via an ELISA plate reader (SpectraMax M5e purchased from Molecular Devices) and the results were shown in FIGS. 6A-6B and Table 11. […] As used herein, the IgG control is human IgG and the data in the table is GD number at 450 nm.

[2] = target: T1, human APRIL protein; experiment: ELISA, coated APRIL; antibody 2.67 nM
Protocol: as §1

[3] = target: T2, human BLyS (full length, arginine 132 mutated to histidine) on CHO-K1 cells (human, UniProt Q9Y275 1-285); experiment: flow cytometry (FACS) on CHO-K1 hBLyS cells, Alexa 488 secondary antibody
T2 construct: also called hBLyS; CHO-K1 hBLyS
T2 sequence (Q9Y275 other isoform, or with tags, fused parts or gaps limits assumed, change not shown): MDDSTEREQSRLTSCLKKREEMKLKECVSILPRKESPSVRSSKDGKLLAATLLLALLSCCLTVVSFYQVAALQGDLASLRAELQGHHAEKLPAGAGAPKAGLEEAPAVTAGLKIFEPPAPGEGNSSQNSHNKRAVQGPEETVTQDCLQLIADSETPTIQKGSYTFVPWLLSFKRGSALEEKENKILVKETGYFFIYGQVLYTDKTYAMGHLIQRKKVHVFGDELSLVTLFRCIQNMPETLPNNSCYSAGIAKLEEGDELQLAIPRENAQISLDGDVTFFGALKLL
Protocol: (§2) The medium was aspirated completely, and the cells were rinsed once with PBS buffer (purchased from Invitrogen) and then treated with cell dispersion solution (TrypLE™ Express Enzyme, purchased from Life technology) and collected. The detailed steps are as follows: the cells were rinsed once with PBS buffer, after counting, the cells were diluted to 2×10⁶ cells/ml with PBS buffer, blocked with 2% (w/w) fetal bovine serum and incubated on ice for 30 minutes. 200 μL of which per well was aliquoted into a 96-well FACS plate and centrifuged at 2000 rpm at 4° C., then each 100 μL of the lead antibodies obtained from Embodiment 1 and 2 were aliquoted into each well and incubated on ice for 1 hour. […] After centrifuged and rinsed 3 times with FACS buffer, cells were suspended with 200 μL of FACS buffer and the results were detected and analyzed by FACS (FACS Calibur, purchased from BD). It was shown in Tables 12-13 that the lead antibody could bind to human BLyS protein on the cell surface and the lead antibody could cross-react with cynomolgus BLyS. The data in the table is MFI, the average fluorescence intensity of the cell population.

[4] = target: T1, human APRIL protein; experiment: ELISA, coated APRIL; antibody 0 nM (blank)
Protocol: as §1

[5] = target: T1, human APRIL protein; experiment: ELISA, coated APRIL; antibody 0.0213 nM
Protocol: as §1

[6] = target: T1, human APRIL protein; experiment: ELISA, coated APRIL; antibody 0.107 nM
Protocol: as §1

[7] = target: T1, human APRIL protein; experiment: ELISA, coated APRIL; antibody 0.534 nM
Protocol: as §1

[8] = target: T3, cynomolgus BLyS (full length, arginine 132 mutated to histidine) on CHO-K1 cells (cynomolgus, UniProt Q9Y275 1-285 (human entry)); experiment: flow cytometry (FACS) on CHO-K1 cynoBLyS cells, Alexa 488 secondary antibody
T3 construct: also called cyno BLyS; CHO-K1 cynoBLyS
T3 chain: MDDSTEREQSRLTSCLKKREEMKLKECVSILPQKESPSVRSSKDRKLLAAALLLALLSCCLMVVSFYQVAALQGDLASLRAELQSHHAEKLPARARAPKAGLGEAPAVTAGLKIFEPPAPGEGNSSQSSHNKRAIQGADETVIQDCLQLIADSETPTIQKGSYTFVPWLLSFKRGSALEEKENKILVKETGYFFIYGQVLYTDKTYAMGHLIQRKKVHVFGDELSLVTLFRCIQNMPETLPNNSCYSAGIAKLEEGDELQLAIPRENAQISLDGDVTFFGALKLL
Protocol: as §2

[9] = target: T1, human APRIL protein; experiment: ELISA, coated APRIL; antibody 0.00427 nM
Protocol: as §1

[10] = target: T1, human APRIL protein; experiment: ELISA, coated APRIL; antibody 66.7 nM
Protocol: as §1

[11] = target: T1, human APRIL protein; experiment: ELISA: APRIL coated at 1.0 µg/mL, antibody titrated, HRP secondary antibody
Protocol: as §1

Row | Binder | OD450 nm [1] | OD450 nm [2] | EC50 (read off the curve) [3] [nM] | OD450 nm [4] | OD450 nm [5] | OD450 nm [6] | OD450 nm [7] | EC50 (read off the curve) [8] [nM] | OD450 nm [9] | OD450 nm [10] | binding result [11]
1 | B1 | 0.137 | 0.0901 | ~0.09 | 0.0847 | 0.0733 | 0.0699 | 0.0668 | ~0.1 | 0.107 | 0.296 | no binding (tested: 66.7 nM)
2 | B2 | – | – | ~0.2 | – | – | – | – | ~0.2 | – | – | –
3 | B3 | 0.0703 | 0.0613 | ~0.2 | 0.0565 | 0.0534 | 0.0549 | 0.0553 | ~0.2 | 0.0564 | 0.138 | no binding (tested: 66.7 nM)
4 | B4 | 0.0973 | 0.0614 | ~0.7 | 0.0655 | 0.0547 | 0.0548 | 0.0565 | ~0.7 | 0.0578 | 0.196 | no binding (tested: 66.7 nM)
5 | B5 | – | – | ~0.1 | – | – | – | – | ~0.1 | – | – | –
6 | B6 | – | – | ~0.1 | – | – | – | – | ~0.1 | – | – | –
7 | B7 | 0.0567 | 0.0561 | – | 0.0542 | 0.0532 | 0.0537 | 0.0544 | ~0.7 | 0.0553 | 0.0703 | no binding (tested: 66.7 nM)
